From article PMC7966918

B1: P5A-2G7 (Fab) (Fab, V domains shown)
VH: QVQLQESGPGLVKPSETLSLTCTVSGDSVSSGSYYWSWIRQPPGKGLEWIGYIYYSGSTNYNPSLKSRVTISVDTSKNQFSLKLSSVTAADTAVYYCARERCYYGSGRAPRCVWFDPWGQGTLVTVSS
VL: QSALTQPASVSGSPGQSITISCTGTSSDVGGYNYVSWYQQHPGKAPKLMIYDVSNRPSGVSNRFSGSKSGNTASLTISGLQAEDEADYYCSSYTSSSTLVVFGGGTKLTVL
B2: P5A-1B8 (Fab) (Fab, V domains shown)
VH: EVQLVESGGGLIQPGGSLRLSCAASGFTVSSNYMSWVRQAPGKGLEWVSVIYPGGSTFYADSVKGRFTISRDNSKNTLYLQMNSLRAEDTAVYYCARETLAFDYWGQGTLVTVSS
VL: DIQLTQSPSFLSASVGDRVTITCRASQGISSYLAWYQQKPGKAPKLLIYAASTLQSGVPSRFSGSGSGTEFTLTISSLQPEDFATYYCQQLNSYPPAFGGGTKVEIK

Molecular target: SARS-CoV-2 RBD (residues Arg319–Phe541) (SARS-CoV-2) (UniProt P0DTC2)

Binder | SARS-CoV-2 pseudovirus neutralisation (luciferase, Huh7), IC50, Fab | SARS-CoV-2 pseudovirus neutralisation (luciferase, Huh7), IC80, Fab | other
B1 | 195 nM | 1020 nM | 15.5%
B2 | 36.2 nM | 174 nM | 25.1%
